We go through two substances from PMC4611135.

The target in assay [1] is DndE-His (Salmonella enterica serovar Cerro 87). Put plainly: pull-down; co-expression of dndDE with His tag on DndE (pDndDEH) in E. coli BL21 (DE3); nickel purification, 15% SDS-PAGE.
The target of assay [2] is DndCDE complex (Salmonella enterica serovar Cerro 87). Put plainly: SEC; DndCDE complex saturated with IscS, purified on Superdex 200; molar ratio by densitometry of the Coomassie-stained SDS-PAGE bands. In general terms: SEC sorts molecules by how far they enter the pores of the column.

In general, stoichiometry N refers to the number of molecules, sites or subunits per partner or assembly.

DndD (natural protein) yielded a stoichiometry N in assay [1] of 1 molar ratio.

As to “Strep-IscS (from UniProt P0A6B7 1-404) (natural protein)”, the stoichiometry N in assay [2] was found to be 1 molar ratio.
